5 molecules from publication PMC2651826 (Biochemistry, 2008) can be followed below.

Data set [1] has as its target RS1 from retinal membrane extracts (bovine (endogenous in retinal membranes)). The experiment in a line: non-reducing SDS gel electrophoresis with western blot. (In general: In western blotting, separated proteins are transferred to a membrane and probed.)
In data set [2] the target is T1, wild-type RS1 (retinoschisin), secreted from HEK 293 cells (human), O15537.
T1 chain: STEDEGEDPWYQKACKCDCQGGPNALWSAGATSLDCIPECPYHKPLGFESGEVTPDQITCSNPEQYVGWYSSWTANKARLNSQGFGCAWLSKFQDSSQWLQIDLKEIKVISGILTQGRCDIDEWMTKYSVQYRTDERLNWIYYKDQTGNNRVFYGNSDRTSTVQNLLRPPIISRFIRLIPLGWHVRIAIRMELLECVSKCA
The description is as above. The note with it: remark: other sources report otherwise.

Data set [3] concerns the target T2, RS1 secreted from Weri-retinoblastoma cells (human (endogenous in Weri-Rb1)), O15537.
T2 chain: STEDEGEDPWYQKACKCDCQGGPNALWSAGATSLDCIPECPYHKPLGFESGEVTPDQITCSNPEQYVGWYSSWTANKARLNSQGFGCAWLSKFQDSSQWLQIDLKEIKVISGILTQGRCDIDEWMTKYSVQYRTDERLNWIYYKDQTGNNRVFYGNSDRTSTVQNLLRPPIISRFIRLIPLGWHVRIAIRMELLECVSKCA
The data set is described as above. The following applies: remark: other sources report otherwise.

Data set [4] deals with the molecule itself. The description is as above.
Data set [5] concerns the target T3, recombinant RS1 secreted from stably transformed Sf21 insect cells (human), O15537.
T3 chain: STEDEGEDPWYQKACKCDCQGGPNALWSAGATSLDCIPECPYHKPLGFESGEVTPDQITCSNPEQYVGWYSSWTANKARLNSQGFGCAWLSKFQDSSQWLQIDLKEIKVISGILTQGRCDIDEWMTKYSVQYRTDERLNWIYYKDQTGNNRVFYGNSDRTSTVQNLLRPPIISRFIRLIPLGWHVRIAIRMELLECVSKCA
The experiment in a line: non-reducing SDS gel electrophoresis with Coomassie Blue staining. The note with it: remark: other sources report otherwise.

Data set [6] has as its target T3, recombinant RS1 secreted from stably …. Put plainly: non-reducing SDS gel electrophoresis with western blot. The note with it: remark: other sources report otherwise.

In general, stoichiometry N refers to the number of molecules, sites or subunits per partner or assembly.

In data set [1], “RS1 from retinal membrane extracts (natural protein)” returned a stoichiometry N of 8.

B1: wild-type RS1 (retinoschisin), secreted from HEK 293 cells, O15537 24-224 (natural protein)
chain: STEDEGEDPWYQKACKCDCQGGPNALWSAGATSLDCIPECPYHKPLGFESGEVTPDQITCSNPEQYVGWYSSWTANKARLNSQGFGCAWLSKFQDSSQWLQIDLKEIKVISGILTQGRCDIDEWMTKYSVQYRTDERLNWIYYKDQTGNNRVFYGNSDRTSTVQNLLRPPIISRFIRLIPLGWHVRIAIRMELLECVSKCA
For the molecule B1, the stoichiometry N in data set [2] was found to be 8.

B2: RS1 secreted from Weri-retinoblastoma cells, O15537 24-224 (natural protein)
chain: STEDEGEDPWYQKACKCDCQGGPNALWSAGATSLDCIPECPYHKPLGFESGEVTPDQITCSNPEQYVGWYSSWTANKARLNSQGFGCAWLSKFQDSSQWLQIDLKEIKVISGILTQGRCDIDEWMTKYSVQYRTDERLNWIYYKDQTGNNRVFYGNSDRTSTVQNLLRPPIISRFIRLIPLGWHVRIAIRMELLECVSKCA
In turn, B2 showed a stoichiometry N in data set [3] of 8.

B3: RS1 C59S/C223S double cysteine mutant (natural protein, human, UniProt O15537 24-224, looked up)
chain: STEDEGEDPWYQKACKCDCQGGPNALWSAGATSLDSIPECPYHKPLGFESGEVTPDQITCSNPEQYVGWYSSWTANKARLNSQGFGCAWLSKFQDSSQWLQIDLKEIKVISGILTQGRCDIDEWMTKYSVQYRTDERLNWIYYKDQTGNNRVFYGNSDRTSTVQNLLRPPIISRFIRLIPLGWHVRIAIRMELLECVSKSA
Consider B3, for which the “stoichiometry N” value in data set [4] amounted to 2.

B4: recombinant RS1 secreted from stably transformed Sf21 insect cells, O15537 24-224 (natural protein)
chain: STEDEGEDPWYQKACKCDCQGGPNALWSAGATSLDCIPECPYHKPLGFESGEVTPDQITCSNPEQYVGWYSSWTANKARLNSQGFGCAWLSKFQDSSQWLQIDLKEIKVISGILTQGRCDIDEWMTKYSVQYRTDERLNWIYYKDQTGNNRVFYGNSDRTSTVQNLLRPPIISRFIRLIPLGWHVRIAIRMELLECVSKCA
B4: the stoichiometry N in data set [5] and in data set [6] was 8 each time.
